Reference: paper PMC6158172, “A bidentate Polycomb Repressive-Deubiquitinase complex is required for efficient activity on nucleosomes” (Nature Communications, 2018)
Where a chain is given by its changes, count along the chain named. In names and notes the source's numbering stands.

B1: ASX^207–340 (Deubad domain of Additional Sex Combs), as in the Calypso^43–404–ASX^207–340 complex (domain or fragment, Drosophila melanogaster, UniProt Q9V727 207-340, looked up)
chain: DGKIDLETPDSILASTNLRALLNKQTFSLLPPLYQYNLIQLLPSVDREASESEAIRLSASCLNNEFFARACLEWRERLSEGEFTPENQLKLKTEAEREKNKLDPWKLKHFEPFWGEKNSRG
notes: Additional Sex Combs (ASX), Drosophila, Deubad domain, residues 207-340 with residues 258-270 omitted; Second open reading frame of the co-expression construct; also called ASX Deubad; source: E. coli BL21 (DE3), co-expressed with His6-Calypso, purified (Ni-NTA, HiTrap Q, Superdex 200)
B2: Calypso^43–404 (wild type), as in the Calypso^43–404–ASX^207–340 complex (enzyme, Drosophila melanogaster, UniProt Q7K5N4 43-404, looked up)
chain: ADGWLELESDPGLFTLLLKDFGCHDVQVEEVYDLQKPIESPYGFIFLFRWIEERRARRKIVETTAEIFVKDEEAISSIFFAQQVVPNSCATHALLSVLLNCNENNLQLGDTLSRLKTHTKGMSPENKGLAIGNTPELACAHNSHAMPQARRRLERTGAGVSSCRFTGEAFHFVSFVPINGQLFELDGLKPYPMNHGGWEDSEDWTDKFRRVMAERLGIATGEQDIRFNLMAVVPDRRIAITHKLKMLRTNQAIVSGTLQKLLKADEQGESGNGDSQRPDTPTTLLEPSAFTARDLQSLLKNLDTEIAINEQHLADENDRRHMFKVDASRRTHNYDKFICTFLSMLAHQGVLGELVSQHLLPS
notes: Calypso, deubiquitinase of the Drosophila PR-DUB, residues 43-404 (UCH domain, coiled-coil hairpin, ULD; lacks the C-terminal positively charged tail 405-471); Always handled together with ASX 207-340, with which it was co-expressed; two copies per 2:2 complex at high concentration; also called WT^(no tail); Calypso^(no tail); source: E. coli BL21 (DE3), co-expressed with ASX, purified …
B3: Calypso(M288R)^43–404, as in the Calypso(M288R)–ASX complex (enzyme, Drosophila melanogaster, UniProt Q7K5N4 43-404, looked up)
chain: B2 chain with M246R
notes: Calypso, Drosophila, residues 43-404, M288R; Handled together with ASX 207-340; source: E. coli BL21 (DE3), co-expressed with ASX, purified (Ni-NTA, 3C cleavage, HiTrap Q, Superdex 200); not shown: His6, N-terminal, cleaved

Tests used:
[1] = biological target: T1, Calypso(N292R)^43–404, as in the Calypso(N292R)–ASX complex (Drosophila melanogaster, UniProt Q7K5N4 43-404, N292R); assay: SEC-MALLS; Superdex 200 5/150 GL Increase, 20 mM HEPES pH 7.5, 100 mM NaCl; wild type injected at 90 and 45 μM, wild type and mutants at ~50 μM; details: both partners purified
T1 construct: Calypso, Drosophila, residues 43-404, N292R; Handled together with ASX 207-340; source: E. coli BL21 (DE3), co-expressed with ASX, purified (Ni-NTA, 3C cleavage, HiTrap Q, Superdex 200); not shown: His6, N-terminal, cleaved
T1 sequence (looked up): B2 chain with N250R

[2] = biological target: T2, Calypso(L340A)^43–404, as in the Calypso(L340A)–ASX complex (Drosophila melanogaster, UniProt Q7K5N4 43-404, L340A); assay: as above; details: both partners purified
T2 construct: Calypso, Drosophila, residues 43-404, L340A; Handled together with ASX 207-340; source: E. coli BL21 (DE3), co-expressed with ASX, purified (Ni-NTA, 3C cleavage, HiTrap Q, Superdex 200); not shown: His6, N-terminal, cleaved
T2 sequence (looked up): B2 chain with L298A

[3] = biological target: B2; assay: AUC; sedimentation velocity, c(s) analysis, 40 µM complex, 20 °C, 20 mM HEPES pH 7.8, 100 mM NaCl, 0.8 mM TCEP, 50,000 r.p.m.; details: both partners purified
[4] = biological target: the molecule itself; assay: as above
[5] = biological target: the molecule itself; assay: SEC-MALLS; Superdex 200 5/150 GL Increase, 20 mM HEPES pH 7.5, 100 mM NaCl; wild type injected at 90 and 45 μM, wild type and mutants at ~50 μM

## B1
[1]
  stoichiometry N: 1 ASX per Calypso (1:1)
[2]
  stoichiometry N: 1 ASX per Calypso (1:1)
[3]
  stoichiometry N: 1 ASX per Calypso (2:2)

## B2
[4]
  stoichiometry N: 2

## B3
[5]
  binding result: binds
